The chains are these.
B1: G protein-activated inward rectifier potassium channel 1 (Rattus norvegicus (Rat)), P63251 (parent)
chain: MSALRRKFGDDYQVVTTSSSGSGLQPQGPGQGPQQQLVPKKKRQRFVDKNGRCNVQHGNLGSETSRYLSDLFTTLVDLKWRWNLFIFILTYTVAWLFMASMWWVIAYTRGDLNKAHVGNYTPCVANVYNFPSAFLFFIETEATIGYGYRYITDKCPEGIILFLFQSILGSIVDAFLIGCMFIKMSQPKKRAETLMFSEHAVISMRDGKLTLMFRVGNLRNSHMVSAQIRCKLLKSRQTPEGEFLPLDQLELDVGFSTGADQLFLVSPLTICHVIDAKSPFYDLSQRSMQTEQFEVVVILEGIVETTGMTCQARTSYTEDEVLWGHRFFPVISLEEGFFKVDYSQFHATFEVPTPPYSVKEQEEMLLMSSPLIAPAITNSKERHNSVECLDGLDDISTKLPSKLQKITGREDFPKKLLRMSSTTSEKAYSLGDLPMKLQRISSVPGNSEEKLVSKTTKMLSDPMSQSVADLPPKLQKMAGGPTRMEGNLPAKLRKMNSDRFT

What all share (conditions): with kapca_bovin PRKACA
Variants of B1 are the subject of experiment [1].
Variants of B1 are the subject of experiment [2]. The source holds these as a separate data set.
Experiment [3] covers variants of B1. This is another data set of the same source.
Variants of B1 are the subject of experiment [4]. This is another data set of the same source.
In experiment [5] the parent is B1. This is another data set of the same source.

Take MSALRRKFGDDYQVVTTSSSGSGLQPQGPGQGPQQQLVPKKKRQRFVDKNGRCNVQHGNLGSETSRYLSDLFTTLVDLKWRWNLFIFILTYTVAWLFMASMWWVIAYTRGDLNKAHVGNYTPCVANVYNFPSAFLFFIETEATIGYGYRYITDKCPEGIILFLFQSILGSIVDAFLIGCMFIKMSQPKKRAETLMFSEHAVISMRDGKLTLMFRVGNLRNSHMVSAQIRCKLLKSRQTPEGEFLPLDQLELDVGFSTGADQLFLVSPLTICHVIDAKSPFYDLSQRSMQTEQFEVVVILEGIVETTGMTCQARTSYTEDEVLWGHRFFPVISLEEGFFKVDYSQFHATFEVPTPPYSVKEQEEMLLMSSPLIAPAITNSKERHNCVECLDGLDDISTKLPSKLQKITGREDFPKKLLRMSSTTSEKAYSLGDLPMKLQRISSVPGNSEEKLVSKTTKMLSDPMSQSVADLPPKLQKMAGGPTRMEGNLPAKLRKMNSDRFT [S385C]: the “effect of a mutation on the interaction” value in experiment [1] is recorded as “disrupting interaction”; in experiment [2] it was “decreasing interaction”.

For MSALRRKFGDDYQVVTTSSSGSGLQPQGPGQGPQQQLVPKKKRQRFVDKNGRCNVQHGNLGSETSRYLSDLFTTLVDLKWRWNLFIFILTYTVAWLFMASMWWVIAYTRGDLNKAHVGNYTPCVANVYNFPSAFLFFIETEATIGYGYRYITDKCPEGIILFLFQSILGSIVDAFLIGCMFIKMSQPKKRAETLMFSEHAVISMRDGKLTLMFRVGNLRNSHMVSAQIRCKLLKSRQTPEGEFLPLDQLELDVGFSTGADQLFLVSPLTICHVIDAKSPFYDLSQRSMQTEQFEVVVILEGIVETTGMTCQARTSYTEDEVLWGHRFFPVISLEEGFFKVDYSQFHATFEVPTPPYSVKEQEEMLLMSSPLIAPAITNSKERHNSVECLDGLDDISTKLPSKLQKICGREDFPKKLLRMSSTTSEKAYSLGDLPMKLQRISSVPGNSEEKLVSKTTKMLSDPMSQSVADLPPKLQKMAGGPTRMEGNLPAKLRKMNSDRFT [T407C], the “effect of a mutation on the interaction” value in experiment [3] is “decreasing interaction”; in experiment [4] it was “disrupting interaction”.

Consider MSALRRKFGDDYQVVTTSSSGSGLQPQGPGQGPQQQLVPKKKRQRFVDKNGRCNVQHGNLGSETSRYLSDLFTTLVDLKWRWNLFIFILTYTVAWLFMASMWWVIAYTRGDLNKAHVGNYTPCVANVYNFPSAFLFFIETEATIGYGYRYITDKCPEGIILFLFQSILGSIVDAFLIGCMFIKMSQPKKRAETLMFSEHAVISMRDGKLTLMFRVGNLRNSHMVSAQIRCKLLKSRQTPEGEFLPLDQLELDVGFSTGADQLFLVSPLTICHVIDAKSPFYDLSQRSMQTEQFEVVVILEGIVETTGMTCQARTSYTEDEVLWGHRFFPVISLEEGFFKVDYSQFHATFEVPTPPYSVKEQEEMLLMSSPLIAPAITNSKERHNSVECLDGLDDISTKLPCKLQKITGREDFPKKLLRMSSTTSEKAYSLGDLPMKLQRISSVPGNSEEKLVSKTTKMLSDPMSQSVADLPPKLQKMAGGPTRMEGNLPAKLRKMNSDRFT [S401C], for which the “effect of a mutation on the interaction” value is reported as “decreasing interaction” in experiment [5] and “disrupting interaction” in experiment [4].

For the origin of these results see IntAct's records for PubMed 19765080.
